Values quoted from earlier work as cited in patent US11535641B2, “Method for preparing GOS having reduced allergenicity” (FRIESLANDCAMPINA NEDERLAND B.V., priority 2017, dated 2022).
Read-outs that look alike come from different tables or passages of the source.

B1: WT strain enzyme: β-galactosidase from Cryptococcus terrestris strain MM13-F2171, SEQ ID NO: 1 (protein, listed as Cryptococcus terrestris)
chain: MIPASALLAAVPLLAQQVSAGILRRQNAAGSDSAAPDSIADASTGVVSSIATEAVSSGATGLVASVAMSFASSMATPTATVTGLSSETGAPSNTPMASASGSVPTTTSAVGSGDFDWVQTDGLPTITTTLATTNQDAITPTATGPVGGQGTPAVNFTDYSSSSLEQFWNDWVGEVEEPPFAYVPEPPNPYPLPNAPPPIYPEYYTKRPKDILPDYKFPKDFLFGWATAAQQWEGAVKADGKGPSIWDWASRFPGFIADNTTSDVGDLGYYLYKEDLARIAALGANVYSFSMFWTRIFPFGKADSPVNQAGIDFYHDLIDYSWSLGIEPVVTLFHWDTPLALQLEYGGFASERIIDDYVNYAETVFKAYNGSVHKWVTFNEPVVFCSQMAAPVNTTLPPNLNSTIYPYTCSYHLVLAHAKTVKRFRELNIQGQIAFKSDNFVGIPWREGNQEDIDAVERHQAYQIGIFAEPIYNTGDWPDIVKNDLSPDILPRFTDDEIAMIKCTADFFPIDGYRDGYVQAVPGGVEACVANISNPLWPACNQVNFYDSTPAGWAIGTFGNWPTTPWLQNTWQFVRPFLADLAKRYPTEGGIYLSEFGFSEPFENDKTFIYQITQDSGRTAYFNSYLGEVLKGIVEDGIPIKGVFGWSMVDNFEWNSGLSTRFGVQYVDYNSPTRQRTFKRSALEMSEFWNAHRCSA
B2: C. terrestris M2 (mutant strain enzyme 1): β-galactosidase with N-terminal 130 residues of wild-type deleted, SEQ ID NO: 2 (protein, listed as Cryptococcus terrestris)
chain: ATTNQDAITPTATGPVGGQGTPAVNFTDYSSSSLEQFWNDWVGEVEEPPFAYVPEPPNPYPLPNAPPPIYPEYYTKRPKDILPDYKFPKDFLFGWATAAQQWEGAVKADGKGPSIWDWASRFPGFIADNTTSDVGDLGYYLYKEDLARIAALGANVYSFSMFWTRIFPFGKADSPVNQAGIDFYHDLIDYSWSLGIEPVVTLFHWDTPLALQLEYGGFASERIIDDYVNYAETVFKAYNGSVHKWVTFNEPVVFCSQMAAPVNTTLPPNLNSTIYPYTCSYHLVLAHAKTVKRFRELNIQGQIAFKSDNFVGIPWREGNQEDIDAVERHQAYQIGIFAEPIYNTGDWPDIVKNDLSPDILPRFTDDEIAMIKCTADFFPIDGYRDGYVQAVPGGVEACVANISNPLWPACNQVNFYDSTPAGWAIGTFGNWPTTPWLQNTWQFVRPFLADLAKRYPTEGGIYLSEFGFSEPFENDKTFIYQITQDSGRTAYFNSYLGEVLKGIVEDGIPIKGVFGWSMVDNFEWNSGLSTRFGVQYVDYNSPTRQRTFKRSALEMSEFWNAHRCSA
B3: C. terrestris M6 (mutant strain enzyme 3): β-galactosidase with N-terminal 141 residues of wild-type deleted, SEQ ID NO: 4 (protein, listed as Cryptococcus terrestris)
chain: ATGPVGGQGTPAVNFTDYSSSSLEQFWNDWVGEVEEPPFAYVPEPPNPYPLPNAPPPIYPEYYTKRPKDILPDYKFPKDFLFGWATAAQQWEGAVKADGKGPSIWDWASRFPGFIADNTTSDVGDLGYYLYKEDLARIAALGANVYSFSMFWTRIFPFGKADSPVNQAGIDFYHDLIDYSWSLGIEPVVTLFHWDTPLALQLEYGGFASERIIDDYVNYAETVFKAYNGSVHKWVTFNEPVVFCSQMAAPVNTTLPPNLNSTIYPYTCSYHLVLAHAKTVKRFRELNIQGQIAFKSDNFVGIPWREGNQEDIDAVERHQAYQIGIFAEPIYNTGDWPDIVKNDLSPDILPRFTDDEIAMIKCTADFFPIDGYRDGYVQAVPGGVEACVANISNPLWPACNQVNFYDSTPAGWAIGTFGNWPTTPWLQNTWQFVRPFLADLAKRYPTEGGIYLSEFGFSEPFENDKTFIYQITQDSGRTAYFNSYLGEVLKGIVEDGIPIKGVFGWSMVDNFEWNSGLSTRFGVQYVDYNSPTRQRTFKRSALEMSEFWNAHRCSA

How the values were obtained:
[1] = for Ratio in GOS (%) DP2*: lactose not included; for Amount of GOS (content of GOS in total sugar): 24 hours, 53% lactose, 1 U per g lactose
[2] = GOS yield about 50% (65° C., 24 hours)
[3] = acetate buffer (pH 6.0)
[4] = comparison of enzymes, GOS yield about 50%
[5] = comparison of enzymes, typical results when GOS yield about 50% (65° C., 24 hours)

Molecule	Ratio in GOS (%) DP2* [1, 4] [%]	Ratio in GOS (%) DP3 [1, 5] [%]	Ratio in GOS (%) ≥ DP4 [1, 5] [%]	Ratio in GOS (%) DP3 ([1]; reaction temperature 65° C.) [%]	Ratio in GOS (%) ≥ DP4 ([1]; reaction temperature 65° C.) [%]	Amount of GOS (content of GOS in total sugar) ([1]; reaction temperature 65° C.) [%]	Ratio in GOS (%) DP2* ([1]; reaction temperature 65° C.) [%]	Ratio in GOS (%) DP3 ([1]; reaction temperature 70° C.) [%]	Ratio in GOS (%) ≥ DP4 ([1]; reaction temperature 70° C.) [%]	Amount of GOS (content of GOS in total sugar) ([1]; reaction temperature 70° C.) [%]	Ratio in GOS (%) DP2* ([1]; reaction temperature 70° C.) [%]	Ratio in DP3 (%) β1-2, β1-3 [2] [%]	Ratio in DP3 (%) β1-4 [2] [%]	Ratio in DP3 (%) β1-6 [2] [%]	optimum temperature [3] [°C]	further results
B1	25.8	57.5	16.7	51.8	22.1	53.4	26.1	47.4	25.8	54.2	26.8	22.1	76.3	1.5	70	enzyme activity retained ([3]; within the stable temperature range, 30 minutes): ≥ 80%
B2	25.3	60.5	14.2	–	–	–	–	–	–	–	–	20.7	79.0	0.4	70	–
B3	25.8	54.2	19.9	53.4	20.9	53.2	26.0	49.2	24.5	53.9	26.3	22.1	75.2	2.7	70	Ratio in GOS (%) DP3 ([1]; reaction temperature 50° C.): 68.9%; Ratio in GOS (%) ≥ DP4 ([1]; reaction temperature 50° C.): 6.4%; Amount of GOS (content of GOS in total sugar) ([1]; reaction temperature 50° C.): 46.9%; Ratio in GOS (%) DP2* ([1]; reaction temperature 50° C.): 24.7%; Ratio in GOS (%) DP3 ([1]; reaction temperature 60° C.): 58.2%; Ratio in GOS (%) ≥ DP4 ([1]; reaction temperature 60° C.): 16.1%; Amount of GOS (content of GOS in total sugar) ([1]; reaction temperature 60° C.): 52.1%; Ratio in GOS (%) DP2* ([1]; reaction temperature 60° C.): 25.8%
